B1: THAP1; numbered along this chain (parent)
chain: MVQSCSAYGCKNRYDKDKPVSFHKFPLTRPSLCKEWEAAVRRKNFKPTKYSSICSEHFTPDCFKRECNNKLLKENAVPTIFLCTEPHDKKEDLLEPQEQLPPPPLPPPVSQVDAAIGLLMPPLQTPVNLSVFCDHNYTVEDTMHQRKRIHQLEQQVEKLRKKLKTAQQRCRRQERQLEKLKEVVHFQKEKDDVSERGYVILPNDYFEIVEVPA

Variants of: B1
Experiment: THAP1 transcriptional activity (GFP+/GFP- enrichment relative to wild-type constructs) (ratio to WT); higher = more THAP1 activity (PSMB5 reporter activation)
Details: with PSMB5 promoter-GFP reporter
Outline: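 A site-saturation library of human THAP1 (residues 2–213, each changed to all 20 amino acids) was transduced by lentivirus at MOI ~0.3, in duplicate, into THAP1-knockout HEK-293T cells carrying mClover3 knocked in at endogenous PSMB5. After five days, BFP+ cells were sorted into GFP-dim and GFP-bright bins, and variants were counted by Illumina sequencing of genomic DNA amplicons. Activity is the replicate-mean bright/dim read fold change divided by the mean of wild-type synonymous constructs.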

THAP1 transcriptional activity, by site and new letter:
V112: P 1.04; F 0.388; G 1.11; S 1.12; R 0.921; K 1.74; M 1.24; A 0.615; N 1.3; Q 1.03; W 0.234; D 0.804; I 0.587; T 1.06; H 0.743; C 1.08; E 1.25; L 0.629
P102: L 1.12; S 1.09; M 0.907; W 1.02; R 1.43; T 0.743; N 1.12; V 2.39; Q 3.01
Q111: T 1.13; M 0.329; D 1.06; H 0.97; E 0.762; N 0.81; F 0.585; W 0.132; A 0.608; I 0.508; V 0.457; R 0.543; P 0.993; K 1.01; Y 0.232; G 0.565; C 0.52; L 0.357
P103: K 1.31; T 1.19; M 0.728; R 1.56; N 0.938; H 0.719; Y 0.902; L 1.61; W 0.806; Q 1.15; V 1.04; E 1.22; D 1.44; F 0.27; S 1.1
P104: R 0.888; W 0.527; Y 0.704; F 0.865; M 0.907; I 0.946; G 1.2; Q 1.88; T 1.39; A 1.09; S 2.12; V 2.16; E 1.85; K 1.14; D 6.01; C 0.986
P121: F 0.115; E 0.735; A 1.18; D 0.48; M 0.288; K 0.594; I 0.299; G 0.454; C 0.259; L 0.104
M120: P 1.25; E 1.25; S 0.984; Q 1.57; G 0.81; C 0.909; A 0.822; N 1.38; H 0.611; F 0.651; R 0.835; Y 0.474; V 1.24; K 1.37; L 0.534; D 1.08; W 0.324; T 1.85; I 1.14
A114: C 0.678; G 0.748; K 0.546; V 0.296; T 1.27; Y 0.291; I 0.238; E 0.768; P 1.29; D 1.33; H 0.483; L 0.635; S 0.612; Q 0.985; F 0.602; W 0.317; N 1.35; M 0.387
G117: E 1.6; A 0.485; H 0.396; P 1.14; N 0.857; K 0.256; Y 0.262; Q 0.581; I 0.169; W 0.261; D 0.481; L 0.288; C 0.534; M 0.138; R 0.476; F 0.352; S 0.877; T 0.51
V109: T 1.18; N 2.02; R 0.788; M 1.17; K 2.39; C 1.49; E 3.82; W 0.467; G 1.96; I 0.777; F 0.884; S 1.31; L 2.8; D 2.07; Y 0.304; Q 1.24; A 1.33
P108: Q 1.31; C 0.724; V 2.03; A 1.3; L 1.93; F 0.519; N 2.3; Y 0.559; G 1.24; T 1.43; H 1.01; D 1.66; I 1.18; M 0.588; S 1.65; K 0.9; E 1.26; W 0.601
A115: D 1.12; W 0.164; S 0.742; R 0.409; F 0.278; V 0.454; H 0.76; I 0.237; C 0.428; T 0.594; P 0.658; E 1.47; L 0.295; K 0.658; N 0.982; G 0.474; Q 0.738; M 0.233; Y 0.256
I116: K 0.886; P 0.93; W 0.472; A 1; G 1.82; N 0.988; Y 0.918; E 0.841; L 0.739; D 1.33; T 1.04; V 1.05; S 1.3; R 0.984; C 0.903; M 0.731; F 0.452; Q 0.902; H 0.735
S110: C 0.567; P 0.916; D 0.782; V 0.459; T 0.793; E 0.424; W 0.41; Q 0.788; I 0.783; F 0.715; H 0.672; R 0.973; K 1.31; M 0.337; A 0.787; G 1.15; L 0.361; Y 0.394
P107: Q 1.2; W 0.215; Y 1.42; T 1.04; R 0.608; C 0.851; H 0.688; M 1.29; G 1.11; I 0.533; E 1.58; K 1.6; F 0.519; D 1.21; S 1.14; N 0.608; A 1.2; L 1.74
P106: F 0.72; D 1.76; Y 1.49; V 1.39; M 1.23; E 2.61; T 1.33; W 0.703; C 1.25; N 1.89; R 1.58; K 1.89; L 0.994; H 0.72; S 2.1; I 1.07
L105: F 0.955; K 1.34; N 1.92; C 1.32; H 1.54; M 1.81; W 0.491; G 1.09; T 1.56; E 1.27; I 2.11; A 1.61; S 2.43; Y 0.831
L118: F 1.09; Y 0.871; S 0.509; Q 1.04; I 1.1; A 0.723; G 0.954; H 1.01; P 1.1; E 0.947; R 1.19; D 0.991; V 0.976; C 0.498; K 0.884; N 2.21; W 0.319
L119: D 0.609; M 0.525; F 0.425; R 0.731; G 0.614; S 0.92; V 0.5; C 0.404; Y 0.443; Q 0.718; I 1.11; E 1.03; A 0.912; P 1.08; N 1.09; K 1.25; H 0.929; W 0.533
D113: I 0.206; E 0.669; H 0.473; L 0.336; F 0.135; N 0.681; Y 0.229; R 0.285; C 0.573; V 0.277; Q 0.7; P 0.638; M 0.24; W 0.173; S 0.697; G 0.816; K 0.918; T 0.375; A 0.667

From the supplement of paper PMC11811203
